Drawing on paper PMC4944999 (PLoS ONE, 2016), this text covers fold amount of hemagglutinin bound compared to PeB for one substance.

The target in this experiment is PeB^GF-Lys, double substituted variant ([change], [change]) of PeB-Lys (mouse). Put plainly: SPR. A general note: SPR reads the build-up and loss of mass on a sensor chip optically.

For “hemagglutinin (HA) of influenza A/California/7/2009 H1N1, in the split vaccine Pandemrix (natural protein)”, the fold amount of hemagglutinin bound compared to PeB was 20 fold.
